According to patent US20240247080A1, “GLP1/GIP/NPY2 RECEPTOR TRIPLE AGONISTS” (Boehringer Ingelheim International GmbH, priority 2022, published 2024):
Like-named read-outs stand apart in the source and are kept apart here. Starred links: 1 amine or outer side, 2 acyl side, 3 side chain; linkers in the order of their positions; H or OH if unused. Non-standard residues stand in square brackets, D forms with d. Groups on a side chain read outwards from the residue. No end group written: not given here. *: point of attachment. C20 diacid = O=C(O)CCCCCCCCCCCCCCCCCCC(=O)*; C18 diacid = O=C(O)CCCCCCCCCCCCCCCCC(=O)*; γGlu = O=C(O)[C@H](CCC(=O)[*:2])N[*:1]; AEEA = NCCOCCOCC(=O)O; Aib = CC(C)(N)C(=O)O; Ahx = NCCCCCC(=O)O

How the values were obtained:
hNPY2R = target: T1, hNPY2R (Homo sapiens, UniProt P49146); assay: hNPY2R CreLuc reporter gene assay in 0.5% and 100% plasma; assay type: cell-based; details: CreLuc reporter gene assay, 100% human plasma; read-out: hNPY2R 100% hP
T1 construct: expressed in transfected cells; host or cells: HEK-293 cells carrying a CRE-luciferase reporter gene
T1 sequence (P49146 1-381): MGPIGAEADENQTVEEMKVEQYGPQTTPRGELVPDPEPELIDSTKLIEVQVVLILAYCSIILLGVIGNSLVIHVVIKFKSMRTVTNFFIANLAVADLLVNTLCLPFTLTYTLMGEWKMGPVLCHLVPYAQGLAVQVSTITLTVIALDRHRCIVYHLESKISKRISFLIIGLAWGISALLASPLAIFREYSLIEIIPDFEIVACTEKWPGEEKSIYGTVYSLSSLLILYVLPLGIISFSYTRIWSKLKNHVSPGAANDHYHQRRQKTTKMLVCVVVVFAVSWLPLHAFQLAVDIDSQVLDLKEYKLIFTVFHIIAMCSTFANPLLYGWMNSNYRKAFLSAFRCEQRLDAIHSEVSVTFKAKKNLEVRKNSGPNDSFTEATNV
Outline: (§1)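 HEK-293 cells co-expressing GLP-1 or NPY2 receptor and CHO cells expressing GIP receptor, each carrying a CRE-driven luciferase reporter, were stimulated with peptides for 4 hours at 37 °C. Luminescence was read after Bright-Glo addition. EC50 came from 8-point, four-decade curves fitted by variable-slope non-linear regression.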

hGIPR = target: T2, hGIPR (Homo sapiens, UniProt P48546); assay: hGIPR CreLuc reporter gene assay in 0.5% and 100% plasma; assay type: cell-based; details: CreLuc reporter gene assay
T2 construct: expressed in transfected cells; host or cells: CHO cells carrying a CRE-luciferase reporter gene
T2 sequence (P48546 22-466): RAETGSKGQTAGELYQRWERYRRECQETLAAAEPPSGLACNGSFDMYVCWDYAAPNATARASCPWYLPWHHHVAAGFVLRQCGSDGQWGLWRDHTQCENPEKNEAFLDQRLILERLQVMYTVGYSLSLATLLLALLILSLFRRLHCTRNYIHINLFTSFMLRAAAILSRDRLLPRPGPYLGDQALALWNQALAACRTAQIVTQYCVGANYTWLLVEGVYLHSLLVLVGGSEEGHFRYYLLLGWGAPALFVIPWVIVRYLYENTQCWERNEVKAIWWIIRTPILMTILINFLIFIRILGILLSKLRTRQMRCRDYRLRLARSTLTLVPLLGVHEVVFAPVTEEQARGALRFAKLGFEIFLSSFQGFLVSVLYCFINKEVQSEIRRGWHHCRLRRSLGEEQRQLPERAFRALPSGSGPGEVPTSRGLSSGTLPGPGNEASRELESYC
Outline: as §1

[1] = Mouse PK after intravenous application; assay type: in vivo; details: plasma, mean residence time, intravenous 30-60 nmol/kg, male NMRI mice
Description: Pharmacokinetic parameters of the peptides were determined after intravenous application to NMRI mice. Male NMRI mice were obtained from Janvier Laboratories (France) weighing 30 to 40 g. Mice were housed in standard cages with a 12:12 hour light:dark cycle and standard food and water access ad libitum. Each test peptide was dissolved in 50 mM phosphate buffer (pH 7.4)/3.5% mannitol. Intravenous application of 30-60 nmol/kg was performed via the tail vein. Serial blood samples from conscious mice were collected from the saphenous vein in EDTA-containing vials at different time points up to 56 hours post-dosing. Subsequently, plasma was prepared by centrifugation for 5 min at approximately 5000 rpm and stored at −20° C. until quantification of the peptide plasma levels by liquid chromatography mass spectrometry (LC-MS). Individual plasma concentration—time profiles were analysed by a non-compartmental approach and the resulting pharmacokinetic parameters were calculated.

hGLP1R = target: T3, hGLP1R (Homo sapiens, UniProt P43220); assay: hGLP1R CreLuc reporter gene assay in 0.5% and 100% plasma; assay type: cell-based; details: CreLuc reporter gene assay, 0.5% human plasma; read-out: hGLP1R 0.5% hP
T3 construct: expressed in transfected cells; host or cells: HEK-293 cells carrying a CRE-luciferase reporter gene
T3 sequence (P43220 24-463): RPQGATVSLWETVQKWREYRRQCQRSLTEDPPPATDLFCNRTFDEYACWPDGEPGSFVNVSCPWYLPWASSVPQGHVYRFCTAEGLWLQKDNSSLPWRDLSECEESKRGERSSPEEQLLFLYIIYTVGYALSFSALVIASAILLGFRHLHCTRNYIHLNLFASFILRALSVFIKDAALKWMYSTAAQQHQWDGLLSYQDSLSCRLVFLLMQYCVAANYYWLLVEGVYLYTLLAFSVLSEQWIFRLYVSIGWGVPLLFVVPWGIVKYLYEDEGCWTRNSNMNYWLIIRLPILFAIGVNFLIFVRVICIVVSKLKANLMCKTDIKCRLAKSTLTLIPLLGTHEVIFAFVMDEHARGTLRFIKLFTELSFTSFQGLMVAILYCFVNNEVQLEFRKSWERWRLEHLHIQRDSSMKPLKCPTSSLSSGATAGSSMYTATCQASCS
Outline: as §1

human GIP receptor = target: T4, human GIP receptor (human, UniProt P48546 22-466); assay: cell-based or functional assay
T4 sequence (looked up): T2 sequence (P48546 22-466)

human GLP-1 receptor = human GLP-1 receptor (human, UniProt P43220 24-463); assay: cell-based or functional assay
[2] = target: T5, human neuropeptide Y2 receptor (human, UniProt P49146 1-381); assay: cell-based or functional assay
T5 sequence (looked up): T1 sequence (P49146 1-381)

Molecule: CC[C@H](C)[C@H](NC(=O)[C@H](CC(C)C)NC(=O)[C@H](Cc1c[nH]c2ccccc12)NC(=O)[C@H](CCC(=O)O)NC(=O)[C@@H](NC(=O)[C@H](Cc1ccccc1)NC(=O)[C@H](C)NC(=O)C(C)(C)NC(=O)[C@H](CCC(N)=O)NC(=O)[C@H](C)NC(=O)[C@H](CCC(N)=O)NC(=O)[C@H](CCCCN)NC(=O)[C@H](CCC(=O)O)NC(=O)[C@H](CC(C)C)NC(=O)C(C)(C)NC(=O)[C@@H](NC(=O)[C@H](CO)NC(=O)[C@H](Cc1ccc(O)cc1)NC(=O)[C@H](CC(=O)O)NC(=O)[C@H](CO)NC(=O)[C@@H](NC(=O)[C@H](Cc1ccccc1)NC(=O)[C@@H](NC(=O)CNC(=O)[C@H](CCC(=O)O)NC(=O)C(C)(C)NC(=O)[C@@H](N)Cc1ccc(O)cc1)[C@@H](C)O)[C@@H](C)O)[C@@H](C)CC)C(C)C)C(=O)N[C@@H](CCCCNC(=O)[C@@H](N)CCCCNC(=O)CC[C@H](NC(=O)CC[C@H](NC(=O)CC[C@H](NC(=O)CC[C@H](NC(=O)CC[C@H](NC(=O)CC[C@H](NC(=O)CCCCCCCCCCCCCCCCCCC(=O)O)C(=O)O)C(=O)O)C(=O)O)C(=O)O)C(=O)O)C(=O)O)C(=O)NCC(=O)NCC(=O)N1CCC[C@H]1C(=O)N[C@@H](CO)C(=O)N[C@@H](CO)C(=O)NCC(=O)N[C@H](C(=O)N[C@@H](CO)C(=O)N[C@H](C(=O)N[C@@H](CCCNC(=N)N)C(=O)N[C@@H](Cc1c[nH]cn1)C(=O)N[C@@H](Cc1ccc(O)cc1)C(=O)N[C@@H](Cc1ccc(O)cc1)C(=O)N[C@@H](CC(N)=O)C(=O)N[C@@H](Cc1c[nH]c2ccccc12)C(=O)N[C@@H](CC(C)C)C(=O)N[C@H](C(=O)N[C@@H](CCCNC(=N)N)C(=O)N[C@@H](CCC(N)=O)C(=O)N[C@@H](CCCNC(=N)N)C(=O)N[C@@H](Cc1ccc(O)cc1)C(N)=O)[C@@H](C)O)[C@@H](C)CC)C(C)C [Compound 27, Y-Aib-E-G-T-F-T-S-D-Y-S-I-Aib-L-E-K-Q-A-Q-Aib-A-F-V-E-W-L-I-K(1,3)-GGPSSGVSIRHYYNWLTRQRY-NH2.C20DA-gGlu-gGlu-gGlu-gGlu-gGlu-gGlu-eLys(1,2)]
- EC50 (hNPY2R): 21 nM
- EC50 (hGIPR; 0.5% human plasma, read-out: hGIPR 0.5% hP): 0.17 nM
- EC50 (hGIPR; 100% human plasma, read-out: hGIPR 100% hP): 1.11 nM
- MRT [1]: 6.7 h
- EC50 (hGLP1R): 0.1 nM

Molecule: Y[Aib]EGTFTSDYSI[Aib]LEKQAQ[Aib]AFVEWLIK([γGlu-γGlu-γGlu-γGlu-γGlu-γGlu-C20 diacid])GGPSEGASLRHYYNWLTRQRY-NH2 (also: TFA salt) [Compound 305]
- EC50 hGIPR 0.5% hP (CreLuc) (human GIP receptor): 0.65 nM
- EC50 hGIPR 100% hP (CreLuc) (human GIP receptor): 2.81 nM
- EC50 hGLP1R 0.5% hP (CreLuc) (human GLP-1 receptor): 0.29 nM
- EC50 hGLP1R 100% hP (CreLuc) (human GLP-1 receptor): 7.08 nM
- EC50 hNPY2R 0.5% hP (CreLuc) [2]: 18.2 nM
- EC50 hNPY2R 100% hP (CreLuc) [2]: 101 nM

Molecule: Y[Aib]EGTFTSDYSI[Aib]LEKQAQ[Aib]AFVEWLIK([Ahx-γGlu-γGlu-γGlu-γGlu-γGlu-γGlu-C18 diacid])GGPSEGASLRHYYNWLTRQRY-NH2 (also: TFA salt) [Compound 303]
- EC50 hGIPR 0.5% hP (CreLuc) (human GIP receptor): 0.36 nM
- EC50 hGIPR 100% hP (CreLuc) (human GIP receptor): 2.36 nM
- EC50 hGLP1R 0.5% hP (CreLuc) (human GLP-1 receptor): 0.2 nM
- EC50 hGLP1R 100% hP (CreLuc) (human GLP-1 receptor): 4.42 nM
- EC50 hNPY2R 0.5% hP (CreLuc) [2]: 33.3 nM
- EC50 hNPY2R 100% hP (CreLuc) [2]: 122 nM

Molecule: Y[Aib]EGTFTSDYSI[Aib]LEKQAQ[Aib]AFVEWLIK([AEEA-AEEA-γGlu-γGlu-γGlu-C18 diacid])GGPSEGASLRHYYNWLTRQRY-NH2 (also: TFA salt) [Compound 299]
- EC50 hGIPR 0.5% hP (CreLuc) (human GIP receptor): 0.4 nM
- EC50 hGIPR 100% hP (CreLuc) (human GIP receptor): 0.71 nM
- EC50 hGLP1R 0.5% hP (CreLuc) (human GLP-1 receptor): 0.08 nM
- EC50 hGLP1R 100% hP (CreLuc) (human GLP-1 receptor): 2.97 nM
- EC50 hNPY2R 0.5% hP (CreLuc) [2]: 11 nM
- EC50 hNPY2R 100% hP (CreLuc) [2]: 31.6 nM

Molecule: Y[Aib]EGTFTSDYSI[Aib]LEKQAQ[Aib]AFVEWLIK([AEEA-γGlu-γGlu-γGlu-C18 diacid])GGPSEGASLRHYYNWLTRQRY-NH2 (also: TFA salt) [Compound 300]
- EC50 hGIPR 0.5% hP (CreLuc) (human GIP receptor): 0.16 nM
- EC50 hGIPR 100% hP (CreLuc) (human GIP receptor): 1.81 nM
- EC50 hGLP1R 0.5% hP (CreLuc) (human GLP-1 receptor): 0.11 nM
- EC50 hGLP1R 100% hP (CreLuc) (human GLP-1 receptor): 6.33 nM
- EC50 hNPY2R 0.5% hP (CreLuc) [2]: 20 nM
- EC50 hNPY2R 100% hP (CreLuc) [2]: 89.3 nM

Molecule: Y[Aib]EGTFTSDYSI[Aib]LEKQAQ[Aib]AFVEWLIK([Glu-Glu-Glu-Glu-Glu-Glu-C18 diacid])GGPSEGASLRHYYNWLTRQRY-NH2 (also: TFA salt) [Compound 302]
- EC50 hGIPR 0.5% hP (CreLuc) (human GIP receptor): 0.33 nM
- EC50 hGIPR 100% hP (CreLuc) (human GIP receptor): 3.87 nM
- EC50 hGLP1R 0.5% hP (CreLuc) (human GLP-1 receptor): 0.15 nM
- EC50 hGLP1R 100% hP (CreLuc) (human GLP-1 receptor): 6.05 nM
- EC50 hNPY2R 0.5% hP (CreLuc) [2]: 31.9 nM
- EC50 hNPY2R 100% hP (CreLuc) [2]: 173 nM

B1: Compound 301 (peptide)
peptide: YXEGTFTSDYSIXLEKQAQXAFVEWLIKGGPSEGASLRHYYNWLTRQRY
modifications: Aib at 2, 13, 20; K28 side chain acylated with C20DA-gGlu-gGlu-gGlu-gGlu-gGlu-AHX; C-terminal amide (NH2)
- EC50 hGIPR 0.5% hP (CreLuc) (human GIP receptor): 0.58 nM
- EC50 hGIPR 100% hP (CreLuc) (human GIP receptor): 3.27 nM
- EC50 hGLP1R 0.5% hP (CreLuc) (human GLP-1 receptor): 0.23 nM
- EC50 hGLP1R 100% hP (CreLuc) (human GLP-1 receptor): 11.3 nM
- EC50 hNPY2R 0.5% hP (CreLuc) [2]: 25.4 nM
- EC50 hNPY2R 100% hP (CreLuc) [2]: 99.3 nM

B2: Compound 304 (peptide)
peptide: B1 peptide
modifications: Aib at 2, 13, 20; K28 side chain acylated with C18DA-gGlu-gGlu-gGlu-gGlu-gGlu-AHX; C-terminal amide (NH2)
- EC50 hGIPR 0.5% hP (CreLuc) (human GIP receptor): 0.23 nM
- EC50 hGIPR 100% hP (CreLuc) (human GIP receptor): 2.35 nM
- EC50 hGLP1R 0.5% hP (CreLuc) (human GLP-1 receptor): 0.35 nM
- EC50 hGLP1R 100% hP (CreLuc) (human GLP-1 receptor): 10.3 nM
- EC50 hNPY2R 0.5% hP (CreLuc) [2]: 35.7 nM
- EC50 hNPY2R 100% hP (CreLuc) [2]: 114 nM
